What all share (settings): both partners purified
In one assay the target is T1, Rad50-V1269M (S. cerevisiae, UniProt P12753 1-1312, V1269M).
T1 construct: Allele isolated after ethyl methanesulfonate mutagenesis; also called Rad50-V1269M mutant; purified Rad50-V1269M; source: overexpressed in yeast, purified (procedure devised for the wild-type protein)
T1 sequence (looked up): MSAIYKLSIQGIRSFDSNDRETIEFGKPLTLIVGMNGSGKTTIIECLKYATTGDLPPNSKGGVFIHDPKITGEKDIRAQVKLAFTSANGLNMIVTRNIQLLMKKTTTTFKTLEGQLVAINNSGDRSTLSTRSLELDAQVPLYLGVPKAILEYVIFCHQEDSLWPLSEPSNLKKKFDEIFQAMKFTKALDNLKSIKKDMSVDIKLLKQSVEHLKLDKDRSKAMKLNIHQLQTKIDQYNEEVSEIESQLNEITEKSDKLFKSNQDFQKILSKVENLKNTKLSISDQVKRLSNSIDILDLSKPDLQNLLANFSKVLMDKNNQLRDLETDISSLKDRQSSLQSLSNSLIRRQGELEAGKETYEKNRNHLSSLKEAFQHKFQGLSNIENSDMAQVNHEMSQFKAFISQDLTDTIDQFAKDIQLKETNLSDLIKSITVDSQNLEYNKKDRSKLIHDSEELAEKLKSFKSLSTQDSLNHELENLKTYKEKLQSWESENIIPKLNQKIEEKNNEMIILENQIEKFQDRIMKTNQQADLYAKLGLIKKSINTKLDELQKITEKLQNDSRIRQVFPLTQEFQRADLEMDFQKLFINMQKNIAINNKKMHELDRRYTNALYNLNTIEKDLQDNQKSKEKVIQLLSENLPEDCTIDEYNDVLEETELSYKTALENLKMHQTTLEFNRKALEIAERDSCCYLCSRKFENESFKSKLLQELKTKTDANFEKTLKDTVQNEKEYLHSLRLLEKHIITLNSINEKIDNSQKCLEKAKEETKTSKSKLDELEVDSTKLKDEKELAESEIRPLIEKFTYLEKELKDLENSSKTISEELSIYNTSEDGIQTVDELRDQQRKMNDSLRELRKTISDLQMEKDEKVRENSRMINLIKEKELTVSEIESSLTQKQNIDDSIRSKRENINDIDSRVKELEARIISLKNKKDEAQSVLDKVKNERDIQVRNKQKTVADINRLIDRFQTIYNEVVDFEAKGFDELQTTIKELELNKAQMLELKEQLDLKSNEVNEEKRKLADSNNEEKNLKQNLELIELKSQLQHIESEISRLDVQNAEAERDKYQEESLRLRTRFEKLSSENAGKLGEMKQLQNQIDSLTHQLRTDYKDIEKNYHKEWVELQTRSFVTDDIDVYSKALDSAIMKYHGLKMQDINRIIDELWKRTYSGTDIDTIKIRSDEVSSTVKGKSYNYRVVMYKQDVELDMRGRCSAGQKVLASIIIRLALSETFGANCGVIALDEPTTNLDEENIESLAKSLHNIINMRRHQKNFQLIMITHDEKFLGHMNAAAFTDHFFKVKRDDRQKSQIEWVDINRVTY
Description: SEC; Rad50 (or Rad50-V1269M), Mre11 and Xrs2 incubated together 5 h on ice; assembled complex separated from unassembled proteins on a Sephacryl S-400 gel filtration column; 0-4°C. In general terms: Size exclusion chromatography separates by hydrodynamic size, large species first.

The next assay has as its target T2, Rad50 (S. cerevisiae, UniProt P12753 1-1312).
T2 construct: Rad50, S. cerevisiae, subunit of the MRX complex; also called wild-type Rad50; purified Rad50; source: overexpressed in yeast, purified
T2 sequence (looked up): T1 sequence (looked up) with M1269V
The assay is described as above.

Assay [1] has as its target T3, MR^V1269MX complex (Mre11-Rad50-V1269M-Xrs2) (S. cerevisiae, UniProt P32829 1-692; P12753 1-1312; P33301 1-854, V1269M).
T3 construct: Mre11, S. cerevisiae; as m3; Rad50, S. cerevisiae, with V1269M; as m2; Xrs2, S. cerevisiae; as m4; also called mutant MRX complex; source: subunits overexpressed in yeast and purified, assembled and separated by gel filtration; copies: + +
Description: pull-down; Flag-tagged Tel1 (50 ng) incubated with MR^V1269MX (100 ng) in the absence or presence of Rif2 (100 ng); captured on anti-Flag resin; immunoblotting.

Changes are numbered by the printed parent chain.

B1: Mre11 (natural protein, S. cerevisiae, UniProt P32829 1-692, looked up)
chain: MDYPDPDTIRILITTDNHVGYNENDPITGDDSWKTFHEVMMLAKNNNVDMVVQSGDLFHVNKPSKKSLYQVLKTLRLCCMGDKPCELELLSDPSQVFHYDEFTNVNYEDPNFNISIPVFGISGNHDDASGDSLLCPMDILHATGLINHFGKVIESDKIKVVPLLFQKGSTKLALYGLAAVRDERLFRTFKDGGVTFEVPTMREGEWFNLMCVHQNHTGHTNTAFLPEQFLPDFLDMVIWGHEHECIPNLVHNPIKNFDVLQPGSSVATSLCEAEAQPKYVFILDIKYGEAPKMTPIPLETIRTFKMKSISLQDVPHLRPHDKDATSKYLIEQVEEMIRDANEETKQKLADDGEGDMVAELPKPLIRLRVDYSAPSNTQSPIDYQVENPRRFSNRFVGRVANGNNVVQFYKKRSPVTRSKKSGINGTSISDRDVEKLFSESGGELEVQTLVNDLLNKMQLSLLPEVGLNEAVKKFVDKDEKTALKEFISHEISNEVGILSTNEEFLRTDDAEEMKALIKQVKRANSVRPTPPKENDETNFAFNGNGLDSFRSSNREVRTGSPDITQSHVDNESRITHISQAESSKPTSKPKRVRTATKKKIPAFSDSTVISDAENELGDNNDAQDDVDIDENDIIMVSTDEEDASYGLLNGRKTKTKTRPAASTKTASRRGKGRASRTPKTDILGSLLAKKRK
notes: Mre11, S. cerevisiae, subunit of the MRX complex; also called purified Mre11; source: overexpressed in yeast, purified
As for B1, in the assay with Rad50-V1269M, the binding result is “binds”.

B2: Xrs2 (natural protein, S. cerevisiae, UniProt P33301 1-854, looked up)
chain: MWVVRYQNTLEDGSISFISCCLQAFKTYSIGRSSKNPLIIKNDKSISRQHITFKWEINNSSDLKHSSLCLVNKGKLTSLNKKFMKVGETFTINASDVLKSTIIELGTTPIRIEFEWINEVWNIPPHLTQFRTMLSEYGISTEISINDIPANLMISDYPKSEDNSIRELYALVSTIPMKKSRFLMELCNTLLPTSKTNLKFDEMWNDMISNPEYNVFDFDPNILLSKFMRLNNIRVLTTIKSEPRLSSLLRTFNINLFAFDNIDSLYKYVDSLEASTEYLILTTTDKKENGKILCTIKTMLTSIIDGTLSAVINMKGASSRTLDNGKFDQISEGMSTILKTSRAPEVEASPVVSKKRKLNRRRVLPLDSLDFFAGGLSTKTLSENRSLTDAKRLNCGAESKTVISSPNIAEADEKHAPFLQNALKPTEDIGKKSGHSSPGAIIVSSPNLGTVNTSEDSLDKSLQSHKLPQPSLPEVAGIGSQTISSNSADYETAAVNSMDDAEVTKNFRVNHHQNIEQPSKNIRKLSNYSREISSPLQENCKSPVKELSIKEKSGTPHAFVEAIQETKNREVKRVKSTIVELKDEELSEEAINQLKNLAIVEPSNNLLRKSFDSEGNKTSRTTEKWENSLMEPEWHKRKNFKTFVKVRPKSKAHKEEGKNNTQSSDFIRNAAFLITRNYVPLKKYSKKDTTTKWGTEENEDMFALTEMERFGSNTFMSDNINSNTIQKRSQALNRFTNEDSSNEGEEDSFSFSRCSGTAASVQPLKNKIFITDEDDLGDIDDKSDRLNHRENNRNLFVVKEMNLRPNLSEECSKQSRHSRSATSRSRGSFGASNNGDGDDDDDDGPKFTFKRRKG
notes: Xrs2, S. cerevisiae, subunit of the MRX complex; also called purified Xrs2; source: overexpressed in yeast, purified
As to B2, the binding result with Rad50 and with Rad50-V1269M was “binds” each time.

B3: (His)6-tagged Rif2 (natural protein, S. cerevisiae, UniProt Q06208 1-395, looked up)
chain: MEHVDSDFAPIRRSKKVVDSDKIVKAISDDLEQKNFTVLRKLNLVPIKKSVSSPKVCKPSPVKERVDHVFYQKFKSMALQELGTNYLSISYVPSLSKFLSKNLRSMKNCIVFFDKVEHIHQYAGIDRAVSETLSLVDINVVIIEMNDYLMKEGIQSSKSKECIESMGQASYSGQLDFEASEKPSNHTSDLMMMVMRKINNDESIDHIVYFKFEQLDKLSTSTIIEPSKLTEFINVLSVLEKSNNIAFKVLIYSNNVSISSLLSTSLKKKLNTKYTVFEMPILTCAQEQEYLKKMIKFTFDSGSKLLQSYNSLVTCQLNNKESNLAIFFEFLKVFPHPFTYLFNAYTEIIVQSRTFDELLDKIRNRLTIKNYPHSAYNFKKNQRLPLKLTRKVHDR
notes: Rif2, S. cerevisiae; expressed from pET-Rif2 (gift from K. Sugimoto); No removal of the tag is described; the final preparation is called (His)6-Rif2; also called (His)6-Rif2; purified Rif2; source: E. coli BL21 Rosetta, purified (Ni-NTA, SP Sepharose, Mono S, Superdex 200)
For the molecule B3, the binding result in assay [1] was “binds”.

(Values after PMC4762649, “Tel1 and Rif2 Regulate MRX Functions in End-Tethering and Repair of DNA Double-Strand Breaks” (PLoS Biology, 2016).)
